The record followed here is patent publication EP2787008B1 (Samsung Electronics Co., Ltd., dated 2019).

For the test, the target named is T1, huAbF46-H4-A1 (IgG2 Fc).
T1 construct: Human IgG2 hinge and constant region, human kappa; also called anti-c-Met antibody; biotinylated anti-c-Met antibody
Kind of test: SPR, Biacore (GE healthcare); format not stated. (In SPR one partner is held on a chip, and binding of the other changes the refractive index at the surface.)

T1 sequence (VH, as listed by the source, chain 1 of 2): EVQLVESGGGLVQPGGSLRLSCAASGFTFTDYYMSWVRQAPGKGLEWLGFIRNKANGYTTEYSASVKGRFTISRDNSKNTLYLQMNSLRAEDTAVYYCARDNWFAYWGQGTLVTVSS
T1 sequence (VL, as listed by the source, chain 2 of 2): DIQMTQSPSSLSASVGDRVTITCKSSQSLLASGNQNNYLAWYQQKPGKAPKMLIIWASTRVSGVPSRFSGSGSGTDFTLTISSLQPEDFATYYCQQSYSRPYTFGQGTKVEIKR

B1: EW02 (antibody, human IgG1, V domains shown)
VH: EVQLLESGGGLVQPGGSLRLSCAASGFTFSNYAMSWVRQAPGKGLEWVSSISSSGGNTYYADSVKGRFTISRDNSKNTLYLQMNSLGAEDTAVYYCAKYHSVFDYWGQGTLVTVSS
VL: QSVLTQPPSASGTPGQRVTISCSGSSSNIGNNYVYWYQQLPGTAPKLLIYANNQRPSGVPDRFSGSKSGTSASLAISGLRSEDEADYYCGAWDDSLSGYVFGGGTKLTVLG
notes: also called EW02 antibody
For the molecule B1, the Kd (usually the free concentration of one partner at which half of the binding sites on the other are occupied at equilibrium, for simple one-to-one binding) came to 38.4 nM; the koff (commonly a measure of how fast the partners let go of each other) amounted to 0.0032 s⁻¹; the kon (commonly the second-order rate constant of association) was 85000 M⁻¹ s⁻¹.
